Measurements taken from patent US8613931B2, “Compounds for treating beta-amyloidoses” (Affiris AG, priority 2008, dated 2013).

test system: monoclonal antibody MV-001; test: In vitro binding assay (ELISA), parental antibody MV-001; parameters: species or system C57/Bl6 mice; details: peptide-BSA on ELISA plate; OD halfmax, dilution factor 1:X of parental AB MV-001
Procedure: 1. In vitro binding assay (ELISA)
Peptides derived from Phage Display as well as variants thereof were coupled to BSA and bound to ELISA plates (1 μM; as indicated in the respective figures) and subsequently incubated with the monoclonal antibody that was used for the screening procedure to analyse binding capacity of identified peptides.

Row | Molecule | Binding Capacity
1 | SNSEFRRC [p4743] | 3 (strong binding :>20000)
2 | NSSELRHC [p4752] | 3 (strong binding :>20000)
3 | TPLMFWHC [p4733] | 1 (weak binding :<4000)
4 | LHIPFRHC [p4726] | 3 (strong binding :>20000)
5 | SQSYFKHC [p4755] | 3 (strong binding :>20000)
6 | SNFRHSVC [p4749] | 3 (strong binding :>20000)
7 | SAGSFRHC [p4710] | 3 (strong binding :>20000)
8 | QELKRYYC [p4724] | 1 (weak binding :<4000)
9 | SELRHSTC [p4744] | 3 (strong binding :>20000)

Continued, values first:

Row | Binding Capacity | Molecule
10 | 3 (strong binding :>20000) | QLFKHSPC [p4747]
11 | 1 (weak binding :<4000) | TSTEMWHC [p4754]
12 | 1 (weak binding :<4000) | HEPLFSHC [p4719]
13 | 1 (weak binding :<4000) | QPNLFYHC [p4713]
14 | 3 (strong binding :>20000) | SEFSHSSC [p4712]
15 | 3 (strong binding :>20000) | GEMRHQPC [p4702]
16 | 1 (weak binding :<4000) | EDWFFWHC [p4709]
17 | 3 (strong binding :>20000) | ATPLFRHC [p4723]
18 | 3 (strong binding :>20000) | NELRHSTC [p4701]
19 | 3 (strong binding :>20000) | EFLRHTLC [p4722]
20 | 3 (strong binding :>20000) | APIQFRHC [p4750]

molecular target: monoclonal antibody MV-001; test: ELISA, peptide-BSA coated, MV-001; details: not given

Row | Binding Capacity (code (weak binding, OD halfmax 1:<4000)) | Molecule
21 | 1 | HEPLFSHC [p4719]
22 | 1 | TSTEMWHC [p4754]
23 | 1 | TPLMFWHC [p4733]
24 | 1 | EDWFFWHC [p4709]
25 | 1 | QELKRYYC [p4724]
26 | 1 | QPNLFYHC [p4713]

same assay, conditions: scale: code

Row | Molecule | Binding Capacity
27 | APIQFRHC [p4750] | 3
28 | ELFKHHLC [p4714] | 3
29 | YSMRHDAC [p4705] | 2
30 | SQSYFKHC [p4755] | 3
31 | ATPLFRHC [p4723] | 3
32 | MLPFRHGC [p4731] | 2
33 | SLMRHSSC [p4721] | 2
34 | SSSFFPRC [p4708] | 2
35 | SQYFPRPC [p4729] | 2
36 | SNSEFRRC [p4743] | 3
37 | AANYFPRC [p4706] | 2
38 | EFLRHTLC [p4722] | 3
39 | VELRHSRC [p4704] | 2
40 | QVMRHHAC [p4711] | 2
41 | ATFRHSTC [p4735] | 2
42 | NELRHSTC [p4701] | 3
43 | GEMRHQPC [p4702] | 3
44 | LHIPFRHC [p4726] | 3
45 | AEFMHSVC [p4739] | 2
46 | IGFRHDSC [p4742] | 2

Now from value to molecule:

Row | Binding Capacity | Molecule
47 | 2 | DTYFPRSC [p4703]
48 | 2 | TGLMFKHC [p4736]
49 | 2 | APMYFPHC [p4717]
50 | 3 | YEFRHAQC [p4748]
51 | 3 | SAGSFRHC [p4710]
52 | 2 | TYFSHSLC [p4718]
53 | 3 | SEFSHSSC [p4712]
54 | 2 | LQFKHSTC [p4734]
55 | 2 | AEFSHWHC [p4737]
56 | 2 | NELFKHFC [p4727]
57 | 3 | SNFRHSVC [p4749]
58 | 3 | QLFKHSPC [p4747]
59 | 2 | SAMRHSLC [p4732]
60 | 2 | AYFPHTSC [p4751]
61 | 3 | SELRHSTC [p4744]
62 | 3 | NSSELRHC [p4752]
63 | 2 | ATFRHSPC [p4716]
64 | 3 | THMEFRRC [p4745]
